Data on two molecules can be found in US20230093239 (published 2023).

Data set [1] deals with T1, alpha-thrombin (Homo sapiens, UniProt P00734;P00734 P00734:328-363,P00734:364-622). Put plainly: membrane-type surface stress sensor; voltage difference vs poly T control; 240 nM thrombin in PBS.
The target in data set [2] is T1, alpha-thrombin. Nature of the data set: negative control on membrane-type surface stress sensor, used as reference for voltage difference; 240 nM thrombin in PBS.

As to GGTTGGTGTGGTTGGTTTTT (ssDNA) [thrombin aptamer (15-mer with T5 tail)], the binding result in the data set with alpha-thrombin [1] is on record as “binds”.
TTTTTTTTTTTTTTTTTTTT (ssDNA) [poly T control]: the binding result with alpha-thrombin [2] is reported as “no binding”.
